The supplement of paper PMC10567573

B1: MYBL2 (parent)
chain: IAKHLKGRLGKQCRERWHNHLNPE
B2: GFOD1 (parent)
chain: SDDFCTFQMVLEGGVCCTVTLNFN

Variants of: B1
Assay: protein stability index of a GFP-peptide fusion (GPS, HEK-293T) (PSI 1-6); higher = more stable
Conditions: c terminus: a fixed tail appended
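Further: lentivirally expressed fusions sorted by FACS into six bins by GFP to DsRed ratio, PSI derived from sequencing read proportions per bin multiplied by bin number.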

Protein stability index: each site, then its substitutions
W17: C 2.3; P 3.13; Y 2.38; N 2.8; F 2.81; T 2.69; L 2.96; E 3.22; V 2.08; I 2.14; D 2.4; S 2.53; K 2.94; A 2.35; H 2.69; Q 2.71; R 2.4; G 2.52; M 2.31
N22: P 1.35; C 1.92; M 2.58; E 2.42; L 2.24; A 1.73; Q 2.05; I 2.09; Y 2.45; W 2.6; G 1.43; K 1.51; D 2.06; S 2.29; H 1.91; V 2.44; T 2.53; F 2.7; R 1.64
H18: V 1.1; Q 2.43; R 1.56; F 2.24; C 1.8; N 2.33; Y 1.67; K 2.87; I 2.73; L 1.55; S 1.47; P 1.9; G 1.85; D 1.85; A 1.61; T 2.97; E 1.82
N19: R 2.31; H 1.73; Y 3.59; M 1.63; E 2.24; A 1.41; D 2.05; S 1.91; F 2.58; V 2.05; K 1.72; G 2.8; W 2.24; C 1.54; Q 2.02; P 1.02; L 2.63; I 3.11; T 1.9
E24: M 3.97; A 2.08; D 2.34; G 3; S 1.81; T 2.21; F 2.82; K 2.68; Q 1.4; P 2.12; R 2.75; V 3.05; W 1.79; N 2.35; C 1.41; H 2; L 2.54; I 2.27
L21: R 2.34; E 2.88; K 2.79; T 2.3; P 2.97; M 1.47; W 1.79; C 1.69; H 1.75; N 2.22; F 1.91; Y 1.85; A 2.16; D 2.17; I 2.29; G 1.98; Q 2.47; S 1.97; V 2.23
P23: R 2.11; C 2.4; F 3.01; H 2.1; L 1.66; K 2.26; E 1.85; S 1.49; W 1.98; Y 1.33; T 2.19; Q 1.79; D 1.89; M 2.21; N 1.93; V 2.46; G 2.03; A 2.62; I 2.14
R16: D 2.08; H 1.58; W 4.03; E 2.58; I 1.54; F 2.19; Q 2.12; T 2.13; M 2.39; V 2; L 2.06; P 1.96; S 1.85; K 2.66; G 1.71; C 2.13; Y 2.41; N 2; A 2.21
E15: G 1.9; A 2.17; V 2.12; M 3.02; L 2.48; N 1.69; I 1.96; F 2.26; C 2.38; Q 1.49; T 2.5; H 1.25; S 1.23; D 1.73; Y 2.12; K 2.18; P 1.63; R 1.96; W 3.6
H20: G 1.87; F 1.92; C 2.44; M 1.06; A 1.69; R 1.21; Y 1.62; T 2.09; E 2.35; K 2.18; Q 1.84; V 2.58; N 2.1; S 1.54; L 2.42; P 2.41; D 1.96; W 2.57; I 1.77

Variants of: B2
Assay: as above
Conditions: c terminus: a fixed tail appended

Protein stability index: each site, then its substitutions
D3: K 3.76; A 2.55; V 3.3; Y 4; N 2.68; L 2.58
F7: K 1.93; T 2.64
C16: K 2.95; S 3.6; Q 2.45; N 2.89; P 2.65; V 2.46; E 2.24; H 3.09; A 4.12
C5: H 2.97; Q 3.77; A 1.58; F 2.08; V 3.65; R 3.13; M 3.18; K 2.39
G13: F 2.3; P 2.92; K 3.14; A 3.65; M 2.94; I 2.35
F23: H 2.43; I 3.75; N 4.1; L 2.8; A 2.62
Q8: L 3.02; M 3.81; K 3.33; D 2.45; V 3.25; H 3.2; A 3.01; R 4.3; E 2.71
L11: I 2.51; P 3.4; Y 3.1; F 3.38; R 3.43; V 3.22; D 3.52
F4: T 3.91; S 2.38; Q 2.56; E 1.81; N 3.13; K 1.77; D 2.46; I 3.55
E12: F 2.27; N 3.79; V 3.03; A 3.59; G 3.33
M9: H 2.74; C 2.77; A 2.43; Q 1.55; G 3.57; T 3.09; P 1.27; W 2.28; I 3.34; L 2.7
G14: P 2.84; D 3.01; N 1.78; E 2.08; Y 1.83; C 2.19; A 2.87
T20: Q 3.57; M 2.71; N 3.6
V15: F 3.41; L 4.13; M 3.15
D2: G 2.84; A 3.55; H 2.72; E 3.11
L21: G 2.41; P 2.02; F 2.73; D 1.75; A 2.61
T6: P 1.65; A 2.79; N 2.54
S1: D 2.52; E 1.75; Q 1.76
V19: Y 2.38; H 2.41; W 2.61; S 2.07; T 3.14; C 3.15; F 2.73; A 1.95; R 1.9
N22: I 3.6; L 2.04; C 3.25; H 2.62; R 2.43; Q 4.04
N24: W 3.94; L 3.23; R 3.43; T 2.47; P 3; S 2.05; F 3.55
C17: T 3.25; I 2.36; Q 2.87; W 2.79; N 2.77; E 1.21; H 2.13
V10: H 2.2; T 2.36; S 2.04; L 2.58; K 2.56; P 2.35; W 3.71
T18: A 3.01; E 3.76; L 2.5; G 3.96; V 3.91; Y 2.44; I 3.52; N 2.33
